From the supplement of paper PMC12764529 come the findings set out here.

Series [1] in a line: folding stability dG unfold from chymotrypsin proteolysis; higher = more stable. Summed up:
(§1)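 Designed mini-proteins with no cysteine and under 80 residues were kept only if AlphaFold2 dimer inter-PAE was above 15. In a PA-tagged cDNA display construct, they were digested with trypsin and chymotrypsin and then sequenced. K50 was inferred by Bayesian fitting of counts, and unfolding free energy was derived per protease or combined against a sequence-predicted unfolded-state K50 and a shared folded-state K50.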

Series [2] in a line: folding stability dG unfold (combined trypsin and chymotrypsin); higher = more stable. Summed up: as §1
Series [3] in a line: folding stability dG unfold from trypsin proteolysis; higher = more stable. Summed up:
as §1

± gives the half width of the 95% confidence interval.

“SAGKETVKLVVVNKETNKVVEVTFNKDGEIVSVKVFEVKPAPPPPPVELSEEQLVKTKDGKWRSLEELKSAG [r5_685_TrROS_Hall]”: the entries for the “folding stability dG unfold” value in series [1], in series [2] and in series [3] were 1.19 ± 0.075 kcal/mol, 0.829 ± 0.11 kcal/mol and -0.369 ± 0.13 kcal/mol, respectively.
As for “SAGKIEIVEVTKNYVKIKIKNKKTNKTIEIKIPVKKKKGKKLSKEELEELAKKLAKELYPDMKIEVEKVSAG [r5_293_TrROS_Hall]”, the “folding stability dG unfold” value came out at 3.86 ± 0.086 kcal/mol in series [1], 3.31 ± 0.27 kcal/mol in series [2] and 2.24 ± 0.091 kcal/mol in series [3].
For “SAGKIKIEVVKREDGYVVVKIRFEDTGEELVITVPKEDEEKVKELAEELAEKLKEEGIEVEVEVRELPPSAG [r5_815_TrROS_Hall]”, in that order: 3.09 ± 0.21 kcal/mol, 2.86 ± 0.22 kcal/mol and 2.53 ± 0.11 kcal/mol.
For “SAGKITITVEKNEDGELTVTIRIEKDGKPIEEITFESEEEALEAAKKLAEELKKKYPDLKIEVEIVPRPSAG [r5_383_TrROS_Hall]”, in that order: 2.65 ± 0.22 kcal/mol, 3.53 ± 0.64 kcal/mol and 3.47 ± 0.27 kcal/mol.
Take “SAGKKIDPEALAKRILKEFGLPEDAEVEVEEIENTYIARFPEATALFTIEDDEVTVFLAPARPEPELAGSAG [r5_190_TrMRF]”: the results for the “folding stability dG unfold” value in series [1], in series [2] and in series [3] were 0.598 ± 0.18 kcal/mol, 0.881 ± 0.18 kcal/mol and 0.984 ± 0.11 kcal/mol, respectively.
For “SAGKKIKLELYFEENGLKVEVEFDEETGVITVKVELKDGTRIEAKFELLPDGTLKLEIKIEKVKPGEKPSAG [r5_766_TrROS_Hall]”, in that order: 3.87 ± 0.27 kcal/mol, 3.49 ± 0.46 kcal/mol and 2.94 ± 0.15 kcal/mol.
The matching figures for “SAGKKKKFKIVSVEVEVKEVNGKLVIKMKVKDKKTGKTYEITMTLKVVDKKTKKTYTKTLKVTIKLPKSAGG [r19_129_TrROS_Hall]”: 4.44 ± 0.16 kcal/mol, 4.04 ± 0.4 kcal/mol and 3.46 ± 0.15 kcal/mol.
With “SAGKKKKITIEIVIKPKTLEELENKIKEIAKKLGLKKIEKIEIVKIEKDKNGKIKKVVIKITLTEEALKSAG [r5_575_TrROS_Hall]”, the “folding stability dG unfold” value was 3.25 ± 0.24 kcal/mol in series [1], 2.61 ± 0.31 kcal/mol in series [2] and 1.51 ± 0.12 kcal/mol in series [3].
In the case of “SAGKKKKVVITIKVEKSEEEVKELVKKLAEEAKKKGKEVVIKIEVDGKTYEFTLEDIKKLPPNAKVTLLSAG [r5_626_TrROS_Hall]”, the “folding stability dG unfold” value was 1.67 ± 0.096 kcal/mol in series [1], 1.58 ± 0.44 kcal/mol in series [2] and 1.56 ± 0.11 kcal/mol in series [3].
For “SAGKKPKVIEKTITIKVYDKKTKKEYEIKIKVRVVKKDGKVIEEFSEEEAKELAKKLAEELKKNKNIKPSAG [r5_426_TrROS_Hall]”, in that order: 2.44 ± 0.04 kcal/mol, 2.22 ± 0.14 kcal/mol and 1.81 ± 0.097 kcal/mol.
For “SAGKKSIVAPYEELKKIIELLPSGKKYKVIASDPNGKKIEGTIEVKGGKAKIEPGPKNTFKDLLIVITGSAG [r5_85_TrMRF]”, in that order: 0.3 ± 0.13 kcal/mol, 0.248 ± 0.12 kcal/mol and 0.248 ± 0.061 kcal/mol.
Consider “SAGKKTIMIFIPGNMPLDTLKSALRNLPPNVEIHIMYPGQMQTITYDPDDIEIELPPGFPNFYIMIEVPSAG [r5_373_TrROS]”, for which the “folding stability dG unfold” value is 2.646 ± 0.017 kcal/mol in series [1], 2.72 ± 0.057 kcal/mol in series [2] and 2.68 ± 0.13 kcal/mol in series [3].
The matching figures for “SAGKKVKINIKLPEGAKVTKIEFDKKTKTIKITIYDKNGKKVLEMTFVYKDKNGKYKIVKKITVYLKKPSAG [r5_434_TrROS_Hall]”: 4.19 ± 0.068 kcal/mol, 4.09 ± 0.27 kcal/mol and 2.97 ± 0.27 kcal/mol.
For “SAGKKVVIIEIEEVTNEDGEKEYKIRVLVKDEETGEVTEREITVKEGESIEDLIKKALEEGADEVIIVPSAG [r5_37_TrROS_Hall]”, in that order: 4.15 ± 0.14 kcal/mol, 4.12 ± 0.25 kcal/mol and 3.98 ± 0.13 kcal/mol.
The matching figures for “SAGKKYVVVIDIEVKMPGKTKPRPIVIPVPEGETIKEQLSELPGLDNVKIKIQVIPPDQDPDFAGQPISAGG [r19_339_TrROS]”: 1.76 ± 0.17 kcal/mol, 1.2 ± 0.29 kcal/mol and 0.569 ± 0.16 kcal/mol.
Turning to “SAGKLKPGDPVKIKIEIERDPGNGMVRVTYKIEFKDGMYVTMIIPPNGPIHVEIFNPDDGKEREETIPLSAG [r5_55_TrROS]”, the “folding stability dG unfold” value in series [1] was found to be 2.67 ± 0.096 kcal/mol; in series [2], 2.46 ± 0.26 kcal/mol; in series [3], 2.15 ± 0.085 kcal/mol.
As for “SAGKMKIISVKIENNTITIEIYKDGKKIKKIEIKKNKKKIIIKIEIEPGEEIKIKIEINGKTYEITIKPSAG [r5_533_TrROS_Hall]”, the “folding stability dG unfold” value in series [1] was 4.64 ± 0.23 kcal/mol; in series [2] it was 4.11 ± 0.46 kcal/mol; in series [3] it was 2.89 ± 0.26 kcal/mol.
For “SAGKMVKITITGPADKIKELLKKLFPNAEVEVKKVNGKLVFYFKPGEEVIEIEITDKDGNKLTIKIEKVSAG [r5_123_TrROS_Hall]”, in that order: 3.74 ± 0.087 kcal/mol, 3.48 ± 0.17 kcal/mol and 2.54 ± 0.066 kcal/mol.
For “SAGKPEWKLVETIEVTIEVPPGVTVEEIEKKLLEALKEKGIKEVKIEVTYDKENKTITVRVEVLVKKEKSAG [r5_924_TrROS_Hall]”, in that order: 1.92 ± 0.11 kcal/mol, 1.66 ± 0.26 kcal/mol and 1.27 ± 0.13 kcal/mol.
For “SAGKPKKKIKIKLYNVDTGEEIEIEVTVEELKKLLEKLGFEVVKIEYDEETGEVTIYVKVDGYYLEIEESAG [r5_521_TrROS_Hall]”, in that order: 3.55 ± 0.13 kcal/mol, 3.41 ± 0.28 kcal/mol and 2.63 ± 0.16 kcal/mol.
As to “SAGKPKKKKRTITIPIEHNPNNGNFTIKIRWPGRPVTVPFPGDDPEEMLDNMLNELENRLGWPIDEVEISAG [r5_251_TrROS]”, the “folding stability dG unfold” value in series [1] was -0.116 ± 0.27 kcal/mol; in series [2], 0.429 ± 0.23 kcal/mol; in series [3], 0.932 ± 0.069 kcal/mol.
For “SAGKPKPEETVTLVLEVPKENPIKVEELFEKLPDVKFVEVKVEPLPDDRVLITITVLPEDVEKIKKALGSAG [r5_554_TrMRF]”, the results for the “folding stability dG unfold” value in series [1], in series [2] and in series [3] were 2.13 ± 0.069 kcal/mol, 2.76 ± 0.13 kcal/mol and 3.58 ± 0.28 kcal/mol, respectively.
For “SAGKPKVKVETVTIEVDGKKIKIEVVELENGEKLVRVEVFDENGELVETKTVTLEELKKLLEKAGIEVSAGG [r19_90_TrROS_Hall]”, in that order: 2.2 ± 0.16 kcal/mol, 1.84 ± 0.28 kcal/mol and 1.64 ± 0.1 kcal/mol.
For “SAGKPVKVTLNVVRLPGTGELVVFAEITYPDGSTAYAVARADLATGTVHVKLFDPNGKLLAELTVTLKPSAG [r14_524_TrMRF]”, in that order: 4.62 ± 0.11 kcal/mol, 4.4 ± 0.096 kcal/mol and 3.64 ± 0.2 kcal/mol.
As for “SAGKRMPVEEIANELAKEFPPGQTREVPIRNEDGGEWITLTVYHPNGKPVWKITIRPDGEIEVEWVPLSAGG [r19_0_TrROS]”, the “folding stability dG unfold” value in series [1] worked out at 2.31 ± 0.024 kcal/mol; in series [2] it was 1.94 ± 0.088 kcal/mol; in series [3], 0.889 ± 0.042 kcal/mol.
The matching figures for “SAGKSIKILITTEKEEEAKKLAEEIKKELPKLGYKVEVYIMPKEEFEKFLKEFVVPEPDGKLVKVDLSSAGG [r19_187_TrMRF]”: 2.09 ± 0.1 kcal/mol, 1.48 ± 0.19 kcal/mol and 0.482 ± 0.056 kcal/mol.
For “SAGKSKPILVEITFPNGEKAKVLAVEFPNTVYVFAVVTSKDGSKYLVEAIIDVSPTKIKIFTKSYPLESAGG [r19_385_TrMRF]”, in that order: 4.1 ± 0.043 kcal/mol, 3.64 ± 0.081 kcal/mol and 2.56 ± 0.1 kcal/mol.
Consider “SAGKTIVLPPEMTKEQIEALAKELAEEEGFEKVELVEYDEEKGVFTVKVKVDGKEKTIEIKIVSPEELESAG [r5_912_TrROS_Hall]”, for which the “folding stability dG unfold” value in series [1] was determined as 2.622 ± 0.022 kcal/mol; in series [2] it was 2.3 ± 0.084 kcal/mol; in series [3], 1.62 ± 0.046 kcal/mol.
“SAGKTIVVPTEEEAEKLAKELAEETGKEVEIVKVEKEKKKDGYEVYTIKVKLKDNNKTIEIKIVRPKEKSAG [r5_173_TrROS_Hall]”: the “folding stability dG unfold” value in series [1] was 1.47 ± 0.11 kcal/mol; in series [2], 1.55 ± 0.25 kcal/mol; in series [3], 1.52 ± 0.17 kcal/mol.
For “SAGKTRTINFPGFQIQVQRDPDGKKEITIMFDNPEQRKQMIEQNPFLREFIEWAEKDGLKVEIHVMPPKSAG [r14_873_TrROS]”, the “folding stability dG unfold” value in series [1] came out at 2.04 ± 0.15 kcal/mol; in series [2], 2.06 ± 0.18 kcal/mol; in series [3], 1.85 ± 0.071 kcal/mol.
Consider “SAGKTVTKTKTEYEYKDGKLEKKKVKTETIEPKPKIEVKEVKITLKDGSEVTAKIVSIDPKTKKVVIELSAG [r5_735_TrROS_Hall]”, for which the figures for the “folding stability dG unfold” value in series [1], in series [2] and in series [3] were -0.0238 ± 0.075 kcal/mol, 0.0452 ± 0.23 kcal/mol and 0.26 ± 0.099 kcal/mol, respectively.
For “SAGKVKLTIMIHPMRKNGKPRYYVMVKIEIPGGPKAEIMFPFDSPEQAKNLLEDLGLKVEPEDISIMRWSAG [r5_233_TrROS]”, the “folding stability dG unfold” value was found to be 1.94 ± 0.12 kcal/mol in series [1], 1.94 ± 0.051 kcal/mol in series [2] and 1.89 ± 0.022 kcal/mol in series [3].
For “SAGLIKIERTGDKLTITIPLKGAPPGAQVRIMVFTDGKVEEHWIPPGKEVEITIPPDNIHIFIQIYPPDSAG [r5_867_TrROS]”, the results for the “folding stability dG unfold” value in series [1], in series [2] and in series [3] were 3.15 ± 0.14 kcal/mol, 3.33 ± 0.32 kcal/mol and 3.22 ± 0.38 kcal/mol, respectively.
“SAGLKEIAKKLGLSEEKIKIKEIKKKKKVVYDKKTKKKYEKEEIVIKIEIVDPKTKKKYEIEIPLEEIKSAG [r5_517_TrROS_Hall]”: the “folding stability dG unfold” value in series [1] was determined as 2.63 ± 0.18 kcal/mol; in series [2] it was 2.55 ± 0.22 kcal/mol; in series [3], 2.28 ± 0.18 kcal/mol.
For “SAGLKFSITKAEWENGYLTVKVMVTGPDGQSQPFTITIRIKPVPKPPPKMTEEKDPNGKKKWEYKDPDSAGG [r19_172_TrROS]”, in that order: 2.6 ± 0.072 kcal/mol, 2.47 ± 0.24 kcal/mol and 2.26 ± 0.11 kcal/mol.
